Measurements from US20220073617A1 (published 2022).
Read-outs that look alike come from different tables or passages of the source.

Tests used:
[1] = target: T1, monovalent hVISTA-ECD (amino acids 32-193 of SEQ ID NO: 1 with a 7xHis tail) (UniProt Q9H7M9 33-193); test: SPR; pH 6.0
[2] = target: T1, monovalent hVISTA-ECD (amino acids …); test: SPR; pH 6.0; remark: listed apart in the source

T1 sequence (Q9H7M9 other isoform, or with tags, fused parts or gaps): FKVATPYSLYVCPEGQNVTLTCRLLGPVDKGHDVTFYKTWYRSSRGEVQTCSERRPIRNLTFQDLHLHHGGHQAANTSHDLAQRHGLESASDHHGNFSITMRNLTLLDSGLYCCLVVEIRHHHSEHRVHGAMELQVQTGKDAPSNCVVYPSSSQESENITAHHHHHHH

- Kd [1]: 4.5 nM
- Kd [2]: 4.5 nM
B1: P1-061029.IgG1.3 (antibody, V domains shown)
VH: EVQLVESGGGLVQPGKSLRLSCAASGFTLDDYAMHWVRQAPGKGLEWVSGINWNSANIGYADSVKGRFTISRDNAKNSLYLQMNSLRTEDTALYYCAKVPGYSGGWIDAFDVWGQGTMVTVSS
VL: not shown
